The results in this text go back to article PMC3161980.

Values joined by “and” are separate entries in the source; they are usually repeats but may differ in a detail not shown here. Equal entries are not always repeated.

The assay concerns the target plate-bound HA. The experiment in a line: ELISA. On the technique in general: In an ELISA, binding on a coated surface is turned into a signal by an enzyme label.

Take “NKp30-Fc: long (canonical) ectodomain of NKp30 fused to the Fc portion of human IgG1 (from UniProt O14931 19-135) (Fc fusion)”: the fold stronger ELISA labeling than NKp46-Fc was 1.5 fold and 2 fold.
